Experimental findings from PMC2920259 (Nature structural & molecular biology, 2010) are described below.

The data set deals with the molecule itself. The experiment in a line: crystal structure.

B1: IbpAFic2^H3717A (domain or fragment, Histophilus somni, UniProt Q06277 3482-3797, looked up)
chain: DETANKVNYQDLEDNLNLKGLISLEDDRNANFESNVLKNEKFLDEAREISKKSIPEATVKQMSHLPEFDDILTEGAKKVESRINKAITFRPSVEEFSEIQDLVKTLPKTKVIEDLSTKTNEITEALAATSKTIQRTPELKEQLKTAIEDFLQNSQGKPLTVQMIENLNHGLRPDEGEGRLLYKKENLTKENAVFSSPEAAKIQLAETVDFINRAKNEGIEPSVVGALVYQRLIAYAPFAEGNGRMARVIVNKILLDAGYPAFTKFSDEFEPQIIPQTKASTKSATSSEVVVEFLKELAKKGSKEDNEQNLEKTDRT
Turning to B1, the binding result is “binds”.
